In this experiment the target is Toll-like receptor 2 (mouse (endogenous in RAW264.7)) (UniProt Q9QUN7).
Sequence of UniProt Q9QUN7 (Q9QUN7 25-784): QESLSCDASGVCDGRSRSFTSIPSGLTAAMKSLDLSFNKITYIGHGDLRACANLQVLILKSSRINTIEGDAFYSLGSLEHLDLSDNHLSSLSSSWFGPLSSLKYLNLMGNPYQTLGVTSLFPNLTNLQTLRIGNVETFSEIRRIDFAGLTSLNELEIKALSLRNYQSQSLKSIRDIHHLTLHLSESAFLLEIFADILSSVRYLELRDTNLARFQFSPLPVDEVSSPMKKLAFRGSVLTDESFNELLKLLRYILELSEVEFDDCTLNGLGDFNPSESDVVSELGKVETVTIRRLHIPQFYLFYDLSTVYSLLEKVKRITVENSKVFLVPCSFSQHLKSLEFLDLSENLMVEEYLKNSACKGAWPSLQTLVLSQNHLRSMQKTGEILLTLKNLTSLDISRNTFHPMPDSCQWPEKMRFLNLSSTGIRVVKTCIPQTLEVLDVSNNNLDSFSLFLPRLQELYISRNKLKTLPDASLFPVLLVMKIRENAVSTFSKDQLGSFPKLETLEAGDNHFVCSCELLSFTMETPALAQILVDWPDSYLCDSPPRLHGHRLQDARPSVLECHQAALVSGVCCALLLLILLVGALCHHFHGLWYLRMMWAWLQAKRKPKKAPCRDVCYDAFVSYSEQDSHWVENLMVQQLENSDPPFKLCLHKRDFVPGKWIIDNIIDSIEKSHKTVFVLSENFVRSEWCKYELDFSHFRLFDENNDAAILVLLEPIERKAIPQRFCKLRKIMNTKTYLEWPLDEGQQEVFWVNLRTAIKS

For “recombinant Clonorchis sinensis molecular chaperone HscB (natural protein)”, the IL-10 secreted by RAW264.7 macrophages stimulated with 5~20 μg/ml rCsHscB for 12 h or 24 h (ELISA); highest at 20 μg/ml for 24 h (fold over DMEM-stimulated cells) was > 10.

The record behind these values is paper PMC7549790.
